# Measured values: publication PMC7961048, “Hierarchized phosphotarget binding by the seven human 14-3-3 isoforms” (Nature Communications, 2021)
# No end group written: not given here.
# B1: fluorescently labeled HSPB6 phosphopeptide (fpB6) (peptide)
# peptide: WLRRASAPLPGLK
# modifications: also: phosphorylation, site not given here, fluorescent label, unspecified
# notes: also called FITC-labeled HSPB6 phosphopeptide; tracer; source: synthetic peptide, amino-terminal FITC labeling
# B2: RSK1 phospho-PBM peptide RSK1_-1P (peptide)
# peptide: RRVRKLPSTTL
# modifications: not fully specified (residue 10)
# notes: source: synthetic peptide (in-house, Fmoc)
# B3: RSK1 phospho-PBM peptide RSK1_-2P (peptide)
# peptide: RRVRKLPSTTL
# modifications: not fully specified (residue 9)
# notes: as for B2
# Target: T1, full-length human 14-3-3β fused to the C terminus of MBP (human, UniProt P31946 1-246)
# T1 construct: not shown: MBP (crystallisable mutant), N-terminal, kept
# T1 sequence (looked up): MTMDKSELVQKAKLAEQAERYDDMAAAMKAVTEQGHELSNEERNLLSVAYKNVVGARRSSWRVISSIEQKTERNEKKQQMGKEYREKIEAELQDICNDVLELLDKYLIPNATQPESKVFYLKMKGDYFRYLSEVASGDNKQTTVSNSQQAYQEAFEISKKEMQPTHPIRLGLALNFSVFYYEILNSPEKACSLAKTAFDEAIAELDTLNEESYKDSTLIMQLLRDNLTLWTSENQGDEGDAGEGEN
# Test: fluorescence polarisation
# Details: both partners purified
row,Binder,binding result
1,B1,binds
2,B2,binds
3,B3,binds

# Target: T2, full-length human 14-3-3γ fused to the C terminus of MBP (human, UniProt P61981 1-247)
# T2 construct: not shown: MBP (crystallisable mutant), N-terminal, kept
# T2 sequence (looked up): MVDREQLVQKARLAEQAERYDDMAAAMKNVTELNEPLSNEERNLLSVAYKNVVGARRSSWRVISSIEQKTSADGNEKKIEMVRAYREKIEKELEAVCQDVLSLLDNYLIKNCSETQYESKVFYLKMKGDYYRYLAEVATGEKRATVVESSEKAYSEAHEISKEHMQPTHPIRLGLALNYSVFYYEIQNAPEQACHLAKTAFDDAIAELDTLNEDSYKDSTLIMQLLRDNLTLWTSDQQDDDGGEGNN
# Test: fluorescence polarisation
# Details: both partners purified
row,Binder,binding result
1,B1,binds
2,B2,binds
3,B3,binds

# Target: T3, full-length human 14-3-3ε fused to the C terminus of MBP (human, UniProt P62258 1-255)
# T3 construct: not shown: MBP (crystallisable mutant), N-terminal, kept
# T3 sequence (looked up): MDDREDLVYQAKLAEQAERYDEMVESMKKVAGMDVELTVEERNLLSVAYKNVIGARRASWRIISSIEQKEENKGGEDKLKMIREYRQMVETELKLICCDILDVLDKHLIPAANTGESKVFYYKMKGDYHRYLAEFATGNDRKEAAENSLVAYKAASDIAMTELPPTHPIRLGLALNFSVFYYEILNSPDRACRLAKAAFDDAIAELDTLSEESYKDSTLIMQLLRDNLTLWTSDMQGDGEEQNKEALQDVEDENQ
# Test: fluorescence polarisation
# Details: both partners purified
row,Binder,binding result
1,B1,binds
2,B2,binds
3,B3,binds

# Target: T4, full-length human 14-3-3ζ fused to the C terminus of MBP (human, UniProt P63104 1-245)
# T4 construct: not shown: MBP (crystallisable mutant), N-terminal, kept
# T4 sequence (looked up): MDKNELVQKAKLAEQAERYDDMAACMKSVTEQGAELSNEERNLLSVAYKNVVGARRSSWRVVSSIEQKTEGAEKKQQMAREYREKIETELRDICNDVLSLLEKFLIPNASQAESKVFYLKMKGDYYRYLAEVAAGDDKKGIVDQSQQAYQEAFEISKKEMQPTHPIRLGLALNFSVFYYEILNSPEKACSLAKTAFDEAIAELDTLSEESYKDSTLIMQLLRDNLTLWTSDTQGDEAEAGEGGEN
# Test: fluorescence polarisation
# Details: both partners purified
row,Binder,binding result
1,B1,binds
2,B2,binds
3,B3,binds

# Target: T5, full-length human 14-3-3η fused to the C terminus of MBP (human, UniProt Q04917 1-246)
# T5 construct: not shown: MBP (crystallisable mutant), N-terminal, kept
# T5 sequence (looked up): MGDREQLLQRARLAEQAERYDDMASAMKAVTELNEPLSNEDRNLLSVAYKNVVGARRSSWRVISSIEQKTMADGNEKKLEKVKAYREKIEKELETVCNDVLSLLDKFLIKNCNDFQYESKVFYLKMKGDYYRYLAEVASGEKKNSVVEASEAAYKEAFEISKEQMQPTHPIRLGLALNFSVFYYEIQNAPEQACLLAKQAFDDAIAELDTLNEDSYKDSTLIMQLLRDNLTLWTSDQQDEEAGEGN
# Test: fluorescence polarisation
# Details: both partners purified
row,Binder,binding result
1,B1,binds
2,B2,binds
3,B3,binds

# Target: T6, full-length human 14-3-3σ fused to the C terminus of MBP (human, UniProt P31947 1-248)
# T6 construct: not shown: MBP (crystallisable mutant), N-terminal, kept
# T6 sequence (looked up): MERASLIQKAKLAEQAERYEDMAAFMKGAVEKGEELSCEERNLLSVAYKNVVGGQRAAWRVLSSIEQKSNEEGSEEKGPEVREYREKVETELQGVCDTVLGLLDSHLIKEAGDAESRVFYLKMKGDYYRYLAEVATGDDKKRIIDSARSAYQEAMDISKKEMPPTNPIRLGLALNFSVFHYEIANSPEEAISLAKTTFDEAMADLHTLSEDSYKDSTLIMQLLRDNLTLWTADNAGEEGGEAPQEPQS
# Test: fluorescence polarisation
# Details: both partners purified
row,Binder,binding result
1,B1,binds
2,B2,binds
3,B3,binds

# Target: T7, full-length human 14-3-3τ fused to the C terminus of MBP (human, UniProt P27348 1-245)
# T7 construct: not shown: MBP (crystallisable mutant), N-terminal, kept
# T7 sequence (looked up): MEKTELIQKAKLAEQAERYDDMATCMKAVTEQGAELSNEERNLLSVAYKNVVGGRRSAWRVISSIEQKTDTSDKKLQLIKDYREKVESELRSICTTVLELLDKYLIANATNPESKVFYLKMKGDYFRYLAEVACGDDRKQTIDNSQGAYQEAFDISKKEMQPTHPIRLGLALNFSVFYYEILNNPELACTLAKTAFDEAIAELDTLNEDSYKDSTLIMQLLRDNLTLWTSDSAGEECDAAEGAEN
# Test: fluorescence polarisation
# Details: both partners purified
row,Binder,binding result
1,B1,binds
2,B2,binds
3,B3,binds
